This sample holds only a part of the variants without activity.
Assays:
biotinyl-Val-oxazolone = assay: self-aminoacylation, catalytic enhancement (BVO) (fold over background); higher = more active; k-Seq, kA / k0A0; sequences stand for … in GGGAAUGGAUCCACAUCUACGAAUUC…UUCACUGCAGACUUGACGAAGCUG
Procedure, shortened: (§1)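 Mutagenized RNA pools (0.43 μM; 21-nt variable region) were treated with 2–1250 μM of each biotinyl-aminoacyl-oxazolone. Conditions were 50 μL HEPES/NaCl/KCl/MgCl2/CaCl2 buffer, 5% acetonitrile, pH 6.9–7.0, room temperature, 90 minutes. Catalytic enhancement, the median kA relative to the uncatalyzed rate, was derived from streptavidin capture, qPCR and Illumina sequencing.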

biotinyl-Phe-oxazolone = assay: self-aminoacylation, catalytic enhancement (BFO) (fold over background); higher = more active; k-Seq, kA / k0A0; sequences stand for … in GGGAAUGGAUCCACAUCUACGAAUUC…UUCACUGCAGACUUGACGAAGCUG
Procedure, shortened: as §1

biotinyl-Leu-oxazolone = assay: self-aminoacylation, catalytic enhancement (BLO) (fold over background); higher = more active; k-Seq, kA / k0A0; sequences stand for … in GGGAAUGGAUCCACAUCUACGAAUUC…UUCACUGCAGACUUGACGAAGCUG
Procedure, shortened: as §1

biotinyl-Ile-oxazolone = assay: self-aminoacylation, catalytic enhancement (BIO) (fold over background); higher = more active; k-Seq, kA / k0A0; sequences stand for … in GGGAAUGGAUCCACAUCUACGAAUUC…UUCACUGCAGACUUGACGAAGCUG
Procedure, shortened: as §1

biotinyl-Trp-oxazolone = assay: self-aminoacylation, catalytic enhancement (BWO) (fold over background); higher = more active; k-Seq, kA / k0A0; sequences stand for … in GGGAAUGGAUCCACAUCUACGAAUUC…UUCACUGCAGACUUGACGAAGCUG
Procedure, shortened: as §1

biotinyl-Met-oxazolone = assay: self-aminoacylation, catalytic enhancement (BMO) (fold over background); higher = more active; k-Seq, kA / k0A0; sequences stand for … in GGGAAUGGAUCCACAUCUACGAAUUC…UUCACUGCAGACUUGACGAAGCUG
Procedure, shortened: as §1

Sequence | self-aminoacylation (biotinyl-Val-oxazolone) | self-aminoacylation (biotinyl-Phe-oxazolone) | self-aminoacylation (biotinyl-Leu-oxazolone) | self-aminoacylation (biotinyl-Ile-oxazolone) | self-aminoacylation (biotinyl-Trp-oxazolone) | self-aminoacylation (biotinyl-Met-oxazolone)
CGACAUUUCAAGCAAUCGGUC [Fam1B.1 aminoacylation ribozyme variant] | 1.17 | 1.28 | 1.06 | 1.18 | 1.33 | 1.09
CCUCACUUCAAGCAAUCGGUU [Fam1B.1 aminoacylation ribozyme variant] | 1.61 | 9.36 | 1.7 | 1.34 | 6.83 | 1.45
CUACUUCAAACAAAAGGUCUG [Fam1A.1 aminoacylation ribozyme variant] | 0.946 | 0.784 | 0.618 | 0.822 | 0.592 | 0.624
AUUACCCUGGUGAUCGCGUGA [Fam2.1 aminoacylation ribozyme variant] | 4.19 | 44.2 | 4.38 | 3.45 | 6.27 | 4.66
GCACACCUCAAGCAAUCGGUC [Fam1B.1 aminoacylation ribozyme variant] | 1.73 | 2.09 | 1.23 | 1.4 | 2.46 | 1.3
CCACACUUCAAGCACUCGCUC [Fam1B.1 aminoacylation ribozyme variant] | 2.07 | 2.93 | 2.39 | 2.02 | 1.51 | 2.25
AUUAACCUGGGCAUCGAGUGA [Fam2.1 aminoacylation ribozyme variant] | 2.6 | 20.5 | 5.72 | 2.63 | 5.8 | 4.66
AUUCACCAAGGUCAUCGGGUA [Fam2.2 aminoacylation ribozyme variant] | 3.04 | 22.5 | 3.23 | 3.77 | 4.89 | 2.43
AUUACCCCGGUCGUCGAGUGA [Fam2.1 aminoacylation ribozyme variant] | 1 | 2.06 | 1.41 | 0.914 | 0.938 | 1.39
AUUCACAUACGUCAUCGGGUG [Fam2.2 aminoacylation ribozyme variant] | 4.19 | 53.4 | 9.26 | 4.62 | 6.74 | 7.22
AAGUUUGCUAUUAGUCCCAAG [Fam3.1 aminoacylation ribozyme variant] | 1.02 | 1.45 | 1.04 | 0.989 | 2 | 0.99
CCAAACUUCAAGCAAACGGUC [Fam1B.1 aminoacylation ribozyme variant] | 0.846 | 0.911 | 0.607 | 0.832 | 0.811 | 0.699
AAGUUCGCUAACAGUCGCAAG [Fam3.1 aminoacylation ribozyme variant] | 1.33 | 2.24 | 1.81 | 1.45 | 1.06 | 1.36
AAGUUUGCUAACAGUCGAAAG [Fam3.1 aminoacylation ribozyme variant] | 0.848 | 5.73 | 0.689 | 0.878 | 2 | 0.838
AAGUCUGCAAAUAGUCGCAAG [Fam3.1 aminoacylation ribozyme variant] | 0.671 | 1.15 | 0.891 | 0.902 | 1.22 | 0.888
AUUGACCUAGAUCAUCGGGUG [Fam2.2 aminoacylation ribozyme variant] | 2.54 | 18 | 3.59 | 2.54 | 3.51 | 3.5
AUUCACCAAGGUCAUGGGGUG [Fam2.2 aminoacylation ribozyme variant] | 5.88 | 77.3 | 12.7 | 6.16 | 8.64 | 9.1
CUACCUAAAACAAUCGGUCUG [Fam1A.1 aminoacylation ribozyme variant] | 0.991 | 0.787 | 0.624 | 0.883 | 0.697 | 0.761
CUACUUAAAACAAUCCGUCUG [Fam1A.1 aminoacylation ribozyme variant] | 0.905 | 0.461 | 0.756 | 0.799 | 0.547 | 0.876
AUUCACCUACGUCAUCGGGCG [Fam2.2 aminoacylation ribozyme variant] | 2.97 | 16.3 | 3.26 | 2.62 | 2.75 | 3.42
CAGUUUGCUAAUAGUUGCAAG [Fam3.1 aminoacylation ribozyme variant] | 1.23 | 1.55 | 1.5 | 1.53 | 1.18 | 1.44
CCACACUUCAAGAAAUCGCUC [Fam1B.1 aminoacylation ribozyme variant] | 1.05 | 0.492 | 0.886 | 1.13 | 0.881 | 1.14
ACUCACCUCGGUCAUCGGGUG [Fam2.2 aminoacylation ribozyme variant] | 4.77 | 34.4 | 5.87 | 4.08 | 6.06 | 4.36
AAGUUUGCUAAUAGUGGUAAG [Fam3.1 aminoacylation ribozyme variant] | 0.801 | 0.868 | 0.788 | 0.992 | 0.724 | 0.769
AAGUUUGCCAAUAGUCGAAAG [Fam3.1 aminoacylation ribozyme variant] | 1.02 | 0.727 | 0.911 | 1.05 | 1.5 | 1.44
AUUCGCCUAGGUCAUCCGGUG [Fam2.2 aminoacylation ribozyme variant] | 6.7 | 78.7 | 10.9 | 6.5 | 10.3 | 7.99

Sequence | self-aminoacylation (biotinyl-Val-oxazolone) | self-aminoacylation (biotinyl-Phe-oxazolone) | self-aminoacylation (biotinyl-Leu-oxazolone) | self-aminoacylation (biotinyl-Ile-oxazolone) | self-aminoacylation (biotinyl-Trp-oxazolone) | self-aminoacylation (biotinyl-Met-oxazolone)
AAGUUUGGUAAUAGUCGCCAG [Fam3.1 aminoacylation ribozyme variant] | 1.32 | 4.77 | 1.27 | 1.32 | 2.18 | 1.1
CUACAUCAAACAAUCGCUCUG [Fam1A.1 aminoacylation ribozyme variant] | 0.878 | 0.457 | 0.89 | 0.803 | 0.67 | 0.777
CUACUUCAAACACUCGGUCUC [Fam1A.1 aminoacylation ribozyme variant] | 0.808 | 0.739 | 0.953 | 0.998 | 0.9 | 0.794
AUUCACCUAGGUCAUCAGGGG [Fam2.2 aminoacylation ribozyme variant] | 1.22 | 0.986 | 1.32 | 1.22 | 0.985 | 0.955
AUUCACCUAGGCCAGCGGGUG [Fam2.2 aminoacylation ribozyme variant] | 4.07 | 24.8 | 4.78 | 3.59 | 3.78 | 4.21
AUUAUCCUGGUAAUCGAGUGA [Fam2.1 aminoacylation ribozyme variant] | 5.97 | 96.5 | 14.5 | 5.94 | 16.5 | 13.3
UUUCACCUAGGUCAUCGGCUG [Fam2.2 aminoacylation ribozyme variant] | 2.29 | 8.98 | 1.82 | 1.93 | 2.74 | 1.89
AUUCACCGCGGUCAUCGGGUG [Fam2.2 aminoacylation ribozyme variant] | 5.04 | 59.7 | 8.56 | 4.65 | 7.69 | 7.49
CUACUUCAAACAAUUGAUCUG [Fam1A.1 aminoacylation ribozyme variant] | 0.688 | 0.576 | 0.642 | 0.832 | 0.543 | 0.765
AUGUCUGCUAAUAGUCGCAAG [Fam3.1 aminoacylation ribozyme variant] | 1.56 | 35.5 | 1.74 | 1.91 | 9.53 | 2.25
UAGCUUGCUAAUAGUCGCAAG [Fam3.1 aminoacylation ribozyme variant] | 2.22 | 3.65 | 1.8 | 2.34 | 1.84 | 1.88
CGACUUCAAACAAUCGGUAUG [Fam1A.1 aminoacylation ribozyme variant] | 1.28 | 10.8 | 1.3 | 1.09 | 5.6 | 1.16
AUCCCCCUAGGUCAUCGGGUG [Fam2.2 aminoacylation ribozyme variant] | 8.74 | 132 | 17.6 | 8.62 | 12.6 | 13.3
AAGUUUGCUAGUAAUCGCAAG [Fam3.1 aminoacylation ribozyme variant] | 0.819 | 0.961 | 0.733 | 0.761 | 0.849 | 0.789
ACUCACCUAGGUCAUGGGGUG [Fam2.2 aminoacylation ribozyme variant] | 4 | 24.8 | 4.65 | 3.61 | 4.43 | 3.95
AUUACCCUAGGUCAUCGGGUG [Fam2.2 aminoacylation ribozyme variant] | 5.13 | 51.7 | 11.9 | 5.23 | 8.1 | 8.02
AGUCACCUAGGUCCUCGGGUG [Fam2.2 aminoacylation ribozyme variant] | 4.64 | 37.5 | 6.54 | 5.66 | 9.19 | 6.34
AUUCUCCUAGGUCAUCGGGUG [Fam2.2 aminoacylation ribozyme variant] | 8.06 | 82.4 | 17.7 | 8.11 | 12.3 | 13
CCACUUCAAACAAUCGGUUUG [Fam1A.1 aminoacylation ribozyme variant] | 1.83 | 80.3 | 2.57 | 1.39 | 39.5 | 1.37
AUGGCCCUGGUCAUCGAGUGA [Fam2.1 aminoacylation ribozyme variant] | 29.1 | 729 | 84.6 | 27.1 | 76.5 | 82.9
CCACACUUCAGGCAACCGGUC [Fam1B.1 aminoacylation ribozyme variant] | 1.95 | 1.64 | 1.38 | 1.89 | 1.27 | 1.61
AUUACCCUGGUCAUUGAGCGA [Fam2.1 aminoacylation ribozyme variant] | 1.41 | 4.43 | 1.44 | 1.45 | 1.66 | 1.16
AUUCGCCUGGUCAUCGAGUGA [Fam2.1 aminoacylation ribozyme variant] | 3.17 | 16.6 | 4.99 | 3.01 | 6.48 | 4.4
CUAGUUCAAACAAUCCGUCUG [Fam1A.1 aminoacylation ribozyme variant] | 0.895 | 0.796 | 0.89 | 0.861 | 0.713 | 0.885
CUACUUCAAUCAAACGGUCUG [Fam1A.1 aminoacylation ribozyme variant] | 0.794 | 0.638 | 0.671 | 0.637 | 0.481 | 0.639
